Assay results as given in patent US20040106198A1, “Inhibition of peptide cleavage in plants” (LARGE SCALE BIOLOGY CORPORATION, priority 2002, published 2004).

Each substance was assayed against Nicotianalisin (Nicotiana benthamiana subtilisin-like serine protease) (Nicotiana benthamiana) (assay: cell-based or functional assay).
Sequence of Nicotianalisin (Nicotiana benthamiana subtilisin-like serine protease) (Nicotiana benthamiana) (chain, as listed by the source limits assumed): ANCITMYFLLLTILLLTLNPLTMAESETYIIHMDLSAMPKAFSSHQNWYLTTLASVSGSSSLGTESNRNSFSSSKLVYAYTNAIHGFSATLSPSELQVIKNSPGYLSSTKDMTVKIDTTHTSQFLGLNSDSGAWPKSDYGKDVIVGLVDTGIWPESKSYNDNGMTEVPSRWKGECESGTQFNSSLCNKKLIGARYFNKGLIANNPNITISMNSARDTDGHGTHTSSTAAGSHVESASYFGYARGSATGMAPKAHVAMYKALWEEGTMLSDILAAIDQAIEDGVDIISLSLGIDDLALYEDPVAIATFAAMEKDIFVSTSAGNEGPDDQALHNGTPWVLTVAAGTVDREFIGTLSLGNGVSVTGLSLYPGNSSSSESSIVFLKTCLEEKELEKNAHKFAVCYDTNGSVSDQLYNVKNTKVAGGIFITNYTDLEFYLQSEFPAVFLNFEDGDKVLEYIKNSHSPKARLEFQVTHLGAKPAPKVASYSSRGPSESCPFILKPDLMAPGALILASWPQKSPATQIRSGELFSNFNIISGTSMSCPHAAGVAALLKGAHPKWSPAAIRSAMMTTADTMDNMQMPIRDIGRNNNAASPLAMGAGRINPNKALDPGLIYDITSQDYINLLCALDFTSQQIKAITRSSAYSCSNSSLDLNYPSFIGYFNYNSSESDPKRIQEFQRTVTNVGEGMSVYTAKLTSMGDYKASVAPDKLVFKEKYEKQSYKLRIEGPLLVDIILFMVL

Row | % Inhibition of protease activity in IF (hydrolysis of 0.3 mM N-Suc-AAPL-p-NA after 30 min with inhibitor at 24 C) | Substance
1 | 100% | Chymostatin (peptide)
2 | 41% | Elastinal (peptide)
3 | 18% | Leupeptin (peptide)
4 | 6% | Pepstatin A (peptide)
5 | 2% | pI-II

The next lines start with the substance.

Row | Substance | % Inhibition of protease activity in IF (hydrolysis of 0.3 mM N-Suc-AAPL-p-NA after 30 min with inhibitor at 24 C)
6 | Amastatin (peptide) | 5%
7 | Antipain (peptide) | 77%
8 | Cystain | 2%
9 | potato protease inhibitor I | 30%
